Experimental data taken from patent publication US20100286027A1, “ANTI-BACTERIAL COMPOSITIONS” (priority 2008, published 2010).
≈ marks a conversion by molar mass, not a printed value.

What was measured:
[1] = tested on: E. coli NB27004; test: MIC against aerobic gram negative bacteria; type: cell-based, Escherichia coli
[2] = tested on: H. influenzae NB65027; test: microbe, parasite or virus in culture; details: Haemophilus influenzae, NB65027, read-out: minimal inhibitory concentration (MIC)
[3] = tested on: E. coli NB27005* (TolC efflux pump mutant); test: MIC against aerobic gram negative bacteria, efflux pump mutant; type: cell-based, Escherichia coli
[4] = tested on: P. aeruginosa NB52019; test: MIC against aerobic gram negative bacteria; type: cell-based, Pseudomonas aeruginosa
[5] = tested on: P. aeruginosa NB52020* (mexAB/oprM efflux pump mutant); test: MIC against aerobic gram negative bacteria, efflux pump mutant; type: cell-based, Pseudomonas aeruginosa
[6] = tested on: H. influenzae NB65027-CDS0021* (TolC efflux pump mutant); test: as above; type: cell-based, Haemophilus influenzae
[7] = tested on: Bacillus Subtilis (6633); test: BacTiter-Glo bacterial ATP content viability assay; details: Bacillus Subtilis (6633), gram +; +/− SD, n = 3; >100 = activity detected but <50% inhibition
[8] = tested on: lawn of the indicated bacteria; test: Agar diffusion assay; details: FIG. 11 Panel D; 0.5 mg/ml in sterile PBS per well
[9] = tested on: E. coli; test: Bacterial growth inhibition (FIG. 15); type: cell-based, Escherichia coli; details: FIG. 15 Panel B
[10] = tested on: Pseudomonas aeruginosa (27853); test: BacTiter-Glo bacterial ATP content viability assay; details: gram −, +/− SD, n = 3, >100 = activity detected but <50% inhibition
[11] = tested on: Escherichia coli (25922); test: BacTiter-Glo bacterial ATP content viability assay; details: gram −, +/− SD, n = 3, >100 = activity detected but <50% inhibition
[12] = tested on: H. influenzae NB65027; details: aerobic gram negative
[13] = tested on: Stenotrophomonas maltophilia (17666); test: BacTiter-Glo bacterial ATP content viability assay; details: gram −, +/− SD, n = 3, >100 = activity detected but <50% inhibition
[14] = tested on: L. monocytogenes; test: Bacterial growth inhibition (FIG. 15); type: cell-based, Listeria monocytogenes; details: FIG. 15 Panel C
[15] = tested on: Staphylococcus aureus (29213); test: BacTiter-Glo bacterial ATP content viability assay; details: Staphylococcus aureus (29213), gram +; +/− SD, n = 3; >100 = activity detected but <50% inhibition
[16] = tested on: Escherichia coli (8739); test: BacTiter-Glo bacterial ATP content viability assay; details: gram −, +/− SD, n = 3, >100 = activity detected but <50% inhibition
[17] = tested on: Streptococcus pneumoniae (49619); test: BacTiter-Glo bacterial ATP content viability assay; details: gram +, +/− SD, n = 3, >100 = activity detected but <50% inhibition
[18] = tested on: Listeria monocytogenes (7644); test: BacTiter-Glo bacterial ATP content viability assay; details: Listeria monocytogenes (7644), gram +; +/− SD, n = 3; >100 = activity detected but <50% inhibition
[19] = tested on: Enterococcus faecalis (29212); test: BacTiter-Glo bacterial ATP content viability assay; details: Enterococcus faecalis (29212), gram +; +/− SD, n = 3; >100 = activity detected but <50% inhibition
[20] = tested on: Salmonella choleraesuis (13076); test: BacTiter-Glo bacterial ATP content viability assay; details: gram −, +/− SD, n = 3, >100 = activity detected but <50% inhibition
[21] = tested on: Klebsiella pneumoniae (700603); test: BacTiter-Glo bacterial ATP content viability assay; details: gram −, +/− SD, n = 3, >100 = activity detected but <50% inhibition
[22] = Escherichia coli, read-out: minimal inhibitory concentration (MIC)
[23] = Pseudomonas aeruginosa, read-out: minimal inhibitory concentration (MIC)

## CN(C)[C@@H]1C(O)=C(C(N)=O)C(=O)[C@@]2(O)C(O)=C3C(=O)c4c(O)cccc4[C@@](C)(O)[C@H]3C[C@@H]12 [Tetracycline, reference compound]
[1]; [22]
  MIC: 4 µg/mL (≈ 9 µM)
[2]
  MIC: 0.5 µg/mL (≈ 1.13 µM)
[3]; [22]
  MIC: 0.5 µg/mL (≈ 1.13 µM)
[4]; [23]
  MIC: 32 µg/mL (≈ 72 µM)
[5]; [23]
  MIC: 1 µg/mL (≈ 2.25 µM)
[6]; Haemophilus influenzae, read-out: minimal inhibitory concentration (MIC)
  MIC: 0.5 µg/mL (≈ 1.13 µM)

B1: Nod1: purified recombinant LRR domain of Nod1; human NOD1-LRR is SEQ ID NO: 4 (protein, listed as Homo sapiens)
chain: NKDHFQFTNLFLCGLLSKAKQKLLRHLVPAAALRRKRKALWAHLFSSLRGYLKSLPRVQVESFNQVQAMPTFIWMLRCIYETQSQKVGQLAARGICANYLKLTYCNACSADCSALSFVLHHFPKRLALDLDNNNLNDYGVRELQPCFSRLTVLRLSVNQITDGGVKVLSEELTKYKIVTYLGLYNNQITDVGARYVTKILDECKGLTHLKLGKNKITSEGGKYLALAVKNSKSISEVGMWGNQVGDEGAKAFAEALRNHPSLTTLSLASNGISTEGGKSLARALQQNTSLEILWLTQNELNDEVAESLAEMLKVNQTLKHLWLIQNQITAKGTAQLADALQSNTGITEICLNGNLIKPEEAKVYEDEKRIICF
[7]
  antibacterial activity by bacterial ATP content (IC50), [LRR domain]: 15.5 +/− 12.0 microgram/ml
[8]
  anti-bacterial activity by agar diffusion assay: Anti-bacterial activity
[9]
  E. coli growth: inhibited
[1]
  minimal inhibitory concentration (MIC): >128 microgram/ml
[10]
  antibacterial activity by bacterial ATP content (IC50), [LRR domain]: >100 microgram/ml
[3]; aerobic gram negative, E. coli NB27005*, TolC efflux pump mutant strain
  minimal inhibitory concentration (MIC): 32 microgram/ml
[11]
  antibacterial activity by bacterial ATP content (IC50), [LRR domain]: >100 microgram/ml
[4]
  minimal inhibitory concentration (MIC): >128 microgram/ml
[12]
  minimal inhibitory concentration (MIC): >128 microgram/ml
[13]
  antibacterial activity by bacterial ATP content (IC50), [LRR domain]: >100 microgram/ml
[5]; aerobic gram negative, P. aeruginosa NB52020*, mexAB/oprM efflux pump mutant strain
  minimal inhibitory concentration (MIC): >128 microgram/ml
[14]
  L. monocytogenes growth: inhibited
[15]
  antibacterial activity by bacterial ATP content (IC50), [LRR domain]: 111.3 +/− 13.0 microgram/ml
[16]
  antibacterial activity by bacterial ATP content (IC50), [LRR domain]: 29.0 +/− 2.8 microgram/ml
[17]
  antibacterial activity by bacterial ATP content (IC50), [LRR domain]: 13.5 +/− 4.9 microgram/ml
[18]
  antibacterial activity by bacterial ATP content (IC50), [LRR domain]: 32.0 +/− 2.1 microgram/ml
[19]
  antibacterial activity by bacterial ATP content (IC50), [LRR domain]: >100 microgram/ml
[20]
  antibacterial activity by bacterial ATP content (IC50), [LRR domain]: >100 microgram/ml
[21]
  antibacterial activity by bacterial ATP content (IC50), [LRR domain]: 30.8 +/− 4.9 microgram/ml
[6]; aerobic gram negative, H. influenzae NB65027-CDS0021*, TolC efflux pump mutant strain
  minimal inhibitory concentration (MIC): 4 microgram/ml
